# Data as given in paper PMC314469, “Protein Interaction Networks by Proteome Peptide Scanning” (PLoS Biology, 2004).
# T1: Abp1 SH3 (ABP1_YEAST), P15891
# T1 chain: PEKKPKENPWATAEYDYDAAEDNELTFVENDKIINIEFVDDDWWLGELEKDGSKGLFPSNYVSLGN
# B1: YPL160W 891-903 (peptide)
# chain: SVQNAKFPRASKP
# B2: YBR122C 34-47 (peptide)
# chain: SYPGSTRITLPRRP
# B3: YER019W 144-156 (peptide)
# chain: STFLYRFPINGRP
# B4: YGL027C 137-150 (peptide)
# chain: SVRVQGEPLDPKRP
# B5: YKL020C 555-567 (peptide)
# chain: STMVTYLPPSSKP
# B6: YPR171W 199-212 (peptide)
# chain: TDGNEEKPLLPTRP
# B7: YAL043C 192-204 (peptide)
# chain: STIPDNHPVLNKP
# B8: YMR167W 278-290 (peptide)
# chain: SVYSNYLPKGNRP
# B9: YML027W 280-293 (peptide)
# chain: SSSSSPLENTPPRP
# B10: YNL251C 479-491 (peptide)
# chain: TDSGRNGPRSGKP
# B11: YFR019W 125-137 (peptide)
# chain: SSTIKRYPSRYKP
# B12: YOR118W 248-260 (peptide)
# chain: TAIRTVMPNLLKP
# B13: YKL108W 250-262 (peptide)
# chain: STSFSPSPLIRRP
# B14: YCL027W 383-396 (peptide)
# chain: TEKHELIIPTPSKP
# B15: YBR058C 192-205 (peptide)
# chain: TSPHTENFQIPSKP
# B16: YIL156W 492-504 (peptide)
# chain: SSTKVPEPPSWKP
# B17: YNL106C 1109-1121 (peptide)
# chain: STKPEKPPVVKKP
# B18: YOR160W 317-329 (peptide)
# chain: SVVISKNPDFFKP
# B19: YFR022W 627-640 (peptide)
# chain: SYPSAIQNVQPRKP
# B20: YOL153C 56-68 (peptide)
# chain: TFDVPASPQSKKP
# B21: YBR010W 32-44 (peptide)
# chain: STGGVKKPHRYKP
# B22: YDL145C 11-24 (peptide)
# chain: STRAKGIAFHPSRP
# B23: YPL110C 407-419 (peptide)
# chain: SYILEELPIHLRP
# B24: YMR185W 853-865 (peptide)
# chain: TSLSIVRPNDSKP
# B25: YHR099W 870-882 (peptide)
# chain: SVLAPYLPFLMKP
# B26: YGL008C 14-26 (peptide)
# chain: SSVSAHQPTQEKP
# B27: YGR178C 412-425 (peptide)
# chain: SSTLKSNSSLPPKP
# B28: YKL085W 88-101 (peptide)
# chain: TDMVLIPAGVPRKP
# B29: YML061C 94-106 (peptide)
# chain: TDIHKEDPVDKKP
# B30: YCR033W 957-970 (peptide)
# chain: SVQQSQILIQPERP
# B31: YPL088W 324-337 (peptide)
# chain: TEEEIKYLEEPYKP
# B32: YDL227C 82-95 (peptide)
# chain: TAGHKLSVRVPTKP
# B33: YBR208C 1266-1278 (peptide)
# chain: TSGPHGSPDFFKP
# B34: YPL226W 815-827 (peptide)
# chain: TDVTFSYPGAQKP
# B35: YKL027W 380-393 (peptide)
# chain: STRLTLTKWDPSKP
# B36: YGL021W 216-229 (peptide)
# chain: STSSENRLRTPLKP
# B37: YKR086W 737-749 (peptide)
# chain: TDELSKFPFIDKP
# B38: YBL054W 203-215 (peptide)
# chain: STFSDHEPQHTKP
# B39: YNL139C 1440-1453 (peptide)
# chain: SSYAHKRSELPTRP
# B40: YNL020C 51-64 (peptide)
# chain: SVASLKRVIVPDKP
# B41: YPR022C 958-970 (peptide)
# chain: SYNINSDPVITRP
# B42: YOR367W 152-164 (peptide)
# chain: STKKPRPPVKSKP
# Target: T1, Abp1 SH3 (ABP1_YEAST), P15891
# Test: SPOT array
row,"normalised SPOT signal, Boehringer light units (BLU); mean over the file's lines of this peptide",Binder
1,240,B1
2,568,B2
3,89.3,B3
4,80,B4
5,136,B5
6,65.4,B6
7,117,B7
8,216,B8
9,159,B9
10,36.5,B10
11,238,B11
12,109,B12
13,550,B13
14,57,B14
15,66.6,B15
16,34.3,B16
17,13300,B17
18,62.4,B18
19,105,B19
20,113,B20
21,130,B21

row,"normalised SPOT signal, Boehringer light units (BLU); mean over the file's lines of this peptide",Binder
1,119,B22
2,140,B23
3,54.1,B24
4,8.6,B25
5,161,B26
6,69,B27
7,122,B28
8,200,B29
9,73,B30
10,102,B31
11,638,B32
12,64.2,B33
13,108,B34
14,209,B35
15,76.6,B36
16,42.7,B37
17,96.8,B38
18,201,B39
19,388,B40
20,90.3,B41
21,67200,B42
